Measurements as given in patent US20180311369A1 (WRIGHT STATE UNIVERSITY, published 2018).

Legend:
[1] = molecular target: T1, MAGI-1 PDZ1 domain (Rattus norvegicus (Rat), UniProt Q4L1J4 475-542, limits assumed); test: ligand binding assay with purified MAGI-1 PDZ1
T1 construct: also called MAGI-PDZ-1

[2] = molecular target: T2, MAGI-1 PDZ3 domain (Rattus norvegicus (Rat), UniProt Q4L1J4 846-921, limits assumed); test: ligand binding assay with purified MAGI-1 PDZ3
[3] = molecular target: T2, MAGI-1 PDZ3 domain; test: ligand binding assay with purified PDZ domain
[4] = molecular target: T1, MAGI-1 PDZ1 domain; test: ligand binding assay with purified PDZ domain

T2 sequence (Q4L1J4 846-921 limits assumed): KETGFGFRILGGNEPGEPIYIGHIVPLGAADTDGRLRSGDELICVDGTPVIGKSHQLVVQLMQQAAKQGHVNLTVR
T1 sequence (Q4L1J4 475-542 limits assumed): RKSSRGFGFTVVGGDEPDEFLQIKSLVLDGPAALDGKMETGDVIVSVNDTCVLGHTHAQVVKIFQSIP

Binder: GRKKRRQRRRPPQYKTDGITVV (also called TAT-PDZ3 peptide) [TAT-CAR^Ex8]
- Kd [1]: 23 nM
- Kd [2]: 4 nM

Binder: GRKKRRQRRRPPQGGKKKETLV (also called TAT-PDZ1 peptide) [TAT-NET1]
- Kd [1]: 28 nM
- binding result [3]: no binding

Binder: GRKKRRQRRRPPQSRTRRETQL (also called TAT-E6) [TAT-HPV E6]
- Kd [1]: 15 nM
- binding result [3]: no binding

Binder: GRKKRRQRRRPPQAQSQAGSLV (also called TAT-PDZ3 peptide) [TAT-ESAM]
- Kd [2]: 17 nM
- binding result [4]: no binding
